Data on one substance can be found in US20180044404A1.

The target of the test is CD200 on FBL cells transduced with CD200 (CD200+ FBL). Put plainly: cell-based or functional assay.

In turn, “CD200R-9aas-CD28Cys (murine construct V) (from UniProt Q9ES57 26-229; P31041 142-150; P31041 151-218)” yielded an accumulation of transduced T cells over multiple stimulations with irradiated CD200+ FBL of 3 fold and a lysis of CD200+ FBL cells (CFSE-based cytotoxicity assay) of over 40%.
